Columns and labels:
[1] = target: HCV envelope glycoprotein E2 (in lysate of HCV-infected Huh7.5 cells) (hepatitis C virus (strain not stated)) (UniProt Q99IB8)
[2] = target: HCV envelope glycoprotein E2 (in lysate of HCV-infected Huh7.5 cells) (hepatitis C virus (strain not stated)) (UniProt Q99IB8); remark: listed apart in the source

UniProt Q99IB8, sequence (Q99IB8 384-750): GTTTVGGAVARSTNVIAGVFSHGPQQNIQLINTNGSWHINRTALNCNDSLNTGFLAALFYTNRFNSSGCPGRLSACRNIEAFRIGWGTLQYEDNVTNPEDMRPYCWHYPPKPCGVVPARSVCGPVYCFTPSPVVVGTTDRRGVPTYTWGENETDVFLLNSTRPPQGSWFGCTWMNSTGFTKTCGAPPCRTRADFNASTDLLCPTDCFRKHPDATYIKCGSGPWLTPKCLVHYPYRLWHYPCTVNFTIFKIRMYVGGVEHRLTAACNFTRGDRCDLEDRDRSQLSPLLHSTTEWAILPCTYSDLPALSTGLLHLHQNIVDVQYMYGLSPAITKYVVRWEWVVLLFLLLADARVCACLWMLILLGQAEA

Substance | EC50 for inhibition of HCV JFH-1 (genotype 2a) in the HCVcc full-replication assay in Huh7.5.1 cells (HCV core protein in supernatant) [1] | EC50 for inhibition of replication of JFH-1 (genotype 2a) HCVcc in Huh7.5.1 cells [2] | EC50 for inhibition of replication of the J6/JFH-1 HCVcc chimera (structural genes of genotype 2a J6) in Huh7.5.1 cells [2] | EC50 for inhibition of replication of the TH/JFH-1 HCVcc chimera (structural genes of genotype 1b TH) in Huh7.5.1 cells [2]
griffithsin (from UniProt P84801 1-121) (natural protein) | 0.4 nM | 0.3 nM | 14 nM | 2.2 nM
scytovirin (from UniProt P86041 1-95) (natural protein) | 16.9 nM | 3.2 nM | 50.8 nM | 57.5 nM

From paper PMC3660260
